Source: patent US6420518
One block for each binder: values may come before it. Positions of bridges follow the written chain, without caps; N, C: chain ends. Non-standard residues stand in square brackets, D forms with d. No end group written: not given here. 1Nal = N[C@@H](Cc1cccc2ccccc12)C(=O)O; Nle = CCCC[C@H](N)C(=O)O

What was measured:
IGFBP-1 [1] = biological target: T1, IGFBP-1 (UniProt P08833 26-259); experiment: BIAcore inhibition of the interaction of IGFBP-1 with IGF-1
T1 construct: in kinetics immobilised on a CM chip by EDC/NHS; biotinylated in the phage selection
T1 sequence (looked up): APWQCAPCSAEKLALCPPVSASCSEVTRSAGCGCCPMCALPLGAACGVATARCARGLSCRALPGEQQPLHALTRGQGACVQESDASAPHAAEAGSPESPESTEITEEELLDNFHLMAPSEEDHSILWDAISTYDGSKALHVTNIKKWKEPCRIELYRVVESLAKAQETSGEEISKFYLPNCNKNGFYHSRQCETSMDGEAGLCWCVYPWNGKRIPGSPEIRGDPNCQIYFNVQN
Protocol: Peptides were assayed in a BIAcore1 assay as described in WO 98/45427, supra.

IGFBP-1 [2] = biological target: T1, IGFBP-1; experiment: ELISA or BIAcore inhibition of IGFBP-1 binding to IGF-I; reference peptide
IGFBP-1 [3] = biological target: T1, IGFBP-1; experiment: ELISA inhibition of IGFBP-1 binding to IGF-I
IGFBP-1 [4] = biological target: T1, IGFBP-1; experiment: BIAcore inhibition of IGFBP-1 binding to IGF-I
IGFBP-1 [5] = biological target: T1, IGFBP-1; experiment: BIAcore inhibition assay, 9-10 nM IGFBP-1, immobilized IGF-1
IGFBP-1 [6] = biological target: T1, IGFBP-1; experiment: BIAcore inhibition of the interaction of IGFBP-1 with IGF-1; reference peptide

B1: (i+7)C (peptide)
peptide: Ac-PLEWLAEKYEG
modifications: linker 3-10 via 1,5‑diaminopentane
notes: also called locked-helix variant of bp1-01
Fold potency reduction vs bp1-01 (IGFBP-1 [1]): 20 fold

Binder: CRAGPLQWLCEKYF (disulfide 1-10, Synthetic peptide) [bp1-16]
Fold potency reduction IC50(mut)/IC50(bp1-16) (IGFBP-1 [2]): 1 fold

Binder: CRAGPRQWLCEKYF (disulfide 1-10, also called L6R variant of bp1-16) [bp1-32]
Fold potency reduction IC50(mut)/IC50(bp1-16) (IGFBP-1 [3]): > 1000 fold

Binder: CRAGRLQWLCEKYF (disulfide 1-10, also called P5R variant of bp1-16) [bp1-31]
Fold potency reduction IC50(mut)/IC50(bp1-16) (IGFBP-1 [3]): 2 fold

Binder: CRAGALQWLCEKYF (disulfide 1-10, also called P5A variant of bp1-16) [bp1-30]
Fold potency reduction IC50(mut)/IC50(bp1-16) (IGFBP-1 [3]): 1.5 fold

B2: (i+7)A (peptide)
peptide: Ac-CRAGPLQELCEKYAE
modifications: disulfide 1-10 (inferred); linker 8-15 via 1,5‑diaminopentane
notes: W8 and G15 replaced by the cross-linking Glu residues, F14 replaced by Ala; also called locked-helix variant of bp1-01
Fold potency reduction vs bp1-01 (IGFBP-1 [1]): 40 fold

B4: bp1-625 (peptide)
peptide: GQQSCAAGPLQWLCEHYFSTYGR
modifications: disulfide 5-14
notes: bp1-40 with R2A, K12H and an added C-terminal GlyArg
fold improved potency over bp1-01 (IGFBP-1 [5]): ~20 fold

B6: (i+8)B (peptide)
peptide: Ac-RPLEWLAEKYFE
modifications: linker 4-12 via 1,5‑diaminopentane
notes: as for B1
Fold potency reduction vs bp1-01 (IGFBP-1 [1]): 7.7 fold

B7: (i+7)B (peptide)
peptide: Ac-LEWLAEKYEG
modifications: linker 2-9 via 1,5‑diaminopentane
notes: as for B1
Fold potency reduction vs bp1-01 (IGFBP-1 [1]): > 360 fold

Binder: CRAGPLQWLCEKYFG (disulfide 1-10) [bp1-01]
Fold potency reduction IC50(bp1-01)/IC50(mut) (IGFBP-1 [6]): 1 fold

Next, values leading:

Fold potency reduction IC50(mut)/IC50(bp1-16) (IGFBP-1 [3]): 50 fold
Binder: CRAAPLQWLCEKYF (disulfide 1-10, also called G4A variant of bp1-16) [bp1-29]

Fold potency reduction IC50(mut)/IC50(bp1-16) (IGFBP-1 [3]): > 570 fold
Binder: CRAGPLQWRCEKYF (disulfide 1-10, also called L9R variant of bp1-16) [bp1-26]

Fold potency reduction IC50(mut)/IC50(bp1-16) (IGFBP-1 [3]): 3.1 fold
Binder: CRAGNLQWLCEKYF (disulfide 1-10, also called P5N variant of bp1-16) [bp1-34]

Fold potency reduction IC50(mut)/IC50(bp1-16) (IGFBP-1 [3]): 7.5 fold
Binder: CRAGPLQHLCEKYF (disulfide 1-10, also called W8H variant of bp1-16) [bp1-24]

Fold potency reduction IC50(mut)/IC50(bp1-16) (IGFBP-1 [4]): 3.3 fold
Binder: CRAGPLQRLCEKYF (disulfide 1-10, also called W8R variant of bp1-16) [bp1-22]

Fold potency reduction IC50(mut)/IC50(bp1-16) (IGFBP-1 [3]): 1.7 fold
Binder: CRAGPLQW[Nle]CEKYF (disulfide 1-10, also called L9(Nle) variant of bp1-16) [bp1-37]

Fold potency reduction IC50(mut)/IC50(bp1-16) (IGFBP-1 [4]): 4.8 fold
B3: bp1-23 (peptide)
peptide: CRAGPLQ[1Nal]LCEKYF
modifications: disulfide 1-10
notes: also called W8(Nal(1)) variant of bp1-16

Fold potency reduction vs bp1-01 (IGFBP-1 [1]): 7.7 fold
B5: (i+7)D (peptide)
peptide: Ac-RAGPLEWLAEKYEG
modifications: linker 6-13 via 1,5‑diaminopentane
notes: as for B1

Fold potency reduction vs bp1-01 (IGFBP-1 [1]): 5.9 fold
B8: (i+8)C (peptide)
peptide: Ac-RAGPLEWLAEKYFE
modifications: linker 6-14 via 1,5‑diaminopentane
notes: as for B1

Fold potency reduction IC50(mut)/IC50(bp1-16) (IGFBP-1 [3]): 6.9 fold
Binder: CRAGP[Nle]QWLCEKYF (disulfide 1-10, also called L6(Nle) variant of bp1-16) [bp1-36]
